Literature values in publication PMC11558822, “Myc 9aaTAD activation domain binds to mediator of transcription with superior high affinity” (Molecular Medicine, 2024).

Target: CBP KIX (Homo sapiens) (UniProt Q92793)
Assay: ITC

Chain of CBP KIX (Homo sapiens) (Q92793 584-669): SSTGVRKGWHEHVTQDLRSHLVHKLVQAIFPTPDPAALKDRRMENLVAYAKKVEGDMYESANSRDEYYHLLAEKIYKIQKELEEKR

Substance: MLL 9aaTAD (from UniProt Q03164)
- Kd: 1.4 µM
